Results: publication PMC3498381, “Isolated Toll-like Receptor Transmembrane Domains Are Capable of Oligomerization” (PLoS ONE, 2012)
No end group written: not given here.

Assays:
[1] = test system: homotypic TMD-TMD interaction (ToxR / ctx promoter / β-galactosidase reporter in FHK12 E. coli); test: Homotypic ToxR reporter assay (β-galactosidase); assay type: cell-based; details: β-galactosidase Miller units normalized to GpA signal and expression levels; FHK12 E. coli; 3 replicates with >6 measurements each, N in table
Protocol: . Various plasmid constructs for this assay make it possible to monitor both homotypic and heterotypic interactions that are driven by TMD-TMD association (Fig. S1).
We first investigated homotypic interactions because the majority of the TLR family members function as homodimers. […] This ΔTM construct consists of the same maltose binding protein and ToxR domain, but lacks a TMD for proper membrane insertion (Fig. S2). Statistical analysis using the Tukey-Kramer test was performed to analyze any significant differences between all possible pairs of average interaction potentials (Table S2). […] Among the TLRs, no discernable differences in grouping based on statistical analysis at p = 0.05 were indicated as all receptors belonged to multiple groups, except for TLR1, which with the lowest interaction potential among the family of receptors only existed in one group (Table S1).
Figure 2 Toll-like Receptor Transmembrane Domain Homotypic Interactions. (A) The ToxR assay was used to study homotypic interactions of the TLR TMDs. A chimeric protein expressing the TMD of interest was monitored through β-galactosidase activity. In all cases, we saw that the TLRs have interaction potential solely from TMD-TMD interactions. Each TLR TMD interaction measurement analysis was performed on 3 technical replicates with >6 measurements for each replicate. Error bars depict the standard error of the mean (n – Table S1). Western blots staining for MBP were performed to monitor expression levels of the constructs – (B) chimeric maltose binding protein expression, (C) endogenous maltose binding protein expression. All samples were normalized to the GpA signal and expression levels.
Briefly, the ToxR plasmids containing the TMD of interest (200 ng) were transformed into chemically competent FHK12 E. coli (200 µL) by incubating on ice for 30 min, heat shock at 42°C for 90 s, incubation on ice for 2 min, and addition of SOC media (800 µL) followed by incubation with shaking for 1 h at 37°C. This transformation mixture (50 µL) was then spread on LB agar plates containing cholaramphenicol (30 µg/mL) and ampicillin (100 µg/mL) and grown overnight at 37°C. Single colonies were selected from the plates in triplicate and added to 5 mL of LB media containing cholaramphenicol (30 µg/mL), ampicillin (100 µg/mL), and arabinose (0.0025%). These cultures were incubated overnight (16–20 h) with shaking at 37°C. The β-galactosidase activity was monitored using a Beckman Coulter DTX 880 plate-reader. First 5 µL of each culture was plated >6 times in a clear 96-well flat bottom culture plate (Sarstedt) containing 100 µL of Z-buffer/chloroform (1% β-mercaptoethanol, 10% chloroform, 89% Z buffer: […], 10 mM potassium chloride, 1 mM magnesium sulfate, pH 7.0). The cell densities of each well were recorded by measuring the OD595. Bacteria were lysed by the addition of 50 µL Z-buffer/SDS (1.6% sodium dodecyl sulfate w/v in Z-buffer) and shaking at 28°C for 10 min. Enzymatic activity was measured by adding 50 µL of Z-buffer/ortho-Nitrophenyl-β-[…] (ONPG) (0.4% ONPG w/v in Z-buffer) and monitoring the reaction at 405 nm for a period of 20 min at 30 s intervals. Miller units were calculated using the equation: [drawing 1]
Western blotting was performed with antiserum recognizing the maltose-binding protein moiety of the constructs (Abcam). Data were normalized to GpA Miller Units and protein expression levels using ImageJ (NIH) as reported previously.

[2] = Circular dichroism, helical content by CDNN; assay type: physicochemical; details: CD, CDNN analysis; 5-10 µM peptide, 10 mM C14-betaine micelles, 20 mM HEPES pH 7.4, 25°C, average of 9 scans
Protocol: Figure 4 Circular Dichroism Spectra of TLR1, TLR2, and TLR6 Synthetic TMD Peptides. Far-UV spectra of the synthetic TMD peptides at concentrations ranging from 5–10 µM in the presence of 10 mM C14-betaine detergent micelles. Spectra were collected at 25°C with a step size of 1 nm and are the average of 9 scans. All peptides had helical content >99% (Table S11) as determined using CDNN [63].
CD measurements were performed on a ChirascanPlus spectrometer (Applied Photophysics) using a 1.0 mm path length quartz cuvette. Peptides and C14-Betaine (3-(N,N-Dimethylmyristylammonio)propanesulfonate: Sigma) were co-dissolved in 2,2,2-trifluoroethanol. The organic solvent was removed by drying to a thin film using N2 and further dried overnight under reduced pressure to remove all traces of TFE. Samples were resusupended in a 20 mM HEPES buffer, pH 7.4, yielding a final C14-Betaine concentration of 10 mM. Peptide concentrations were determined using Beer-Lambert law with coumarin absorbance at 400 nm using ε400 of 39,300 M^−1 cm^−1 [62] and FITC absorbance at 495 nm using ε495 of 68,000 M^−1 cm^−1 (Invitrogen). Peptides were prepared such that final concentrations were in the 5–10 µM range. All CD spectra were measured at 25°C with a step size of 1 nm and are reported as the average of 9 scans. Data were not collected below 200 nm due to the high voltage and background noise from the C14-Betaine buffer. Helical content was determined using CDNN [63].

Row | Substance | Mean homotypic TMD interaction (ToxR) [1] | Helix content, 200-260 nm [2] | Helix content, 205-260 nm [2] | Helix content, 210-260 nm [2]
1 | TLR6*: TLR6 TMD chimera with nonfunctional ToxR* domain (negative phenotype) (GNRASITLLIVTIGATMLVLAVTVTSLCIYLGSLIN; also: fused to non-functional ToxR* (S87H) and maltose binding protein, ends not given here) | 0.5764 | 99.90% | 100.00% | 100.00%
2 | TLR2*: TLR2 TMD chimera with nonfunctional ToxR* domain (negative phenotype) (GNRASALVSGMCCALFLLILLTGVLCGSLIN; cysteine pairing not given here; also: fused to non-functional ToxR* (S87H) and maltose binding protein, ends not given here) | 0.7829 | 99.80% | 99.90% | 99.90%
3 | TLR1*: TLR1 TMD chimera with nonfunctional ToxR* domain (negative phenotype) (GNRASITLLIVTIVATMLVLAVTVTSLCSYLGSLIN; also: fused to non-functional ToxR* (S87H) and maltose binding protein, ends not given here) | 0.4775 | 99.70% | 99.90% | 99.90%
